Experimental data reported in PMC7554688, “Blocking of the IL-33/ST2 Signaling Axis by a Single-Chain Antibody Variable Fragment (scFv) Specific to IL-33 with a Defined Epitope” (International Journal of Molecular Sciences, 2020).
Substitutions are numbered along the chain they refer to.

T1: ST2-Fc fusion protein (ectodomain of ST2, residues 19-321, and Fc from human IgG) (UniProt Q01638 19-321)
T1 construct: Suppressor of tumorigenicity 2 (ST2) / interleukin 1 receptor-like 1 (IL1RL1), ectodomain, residues 19-321; Synthesised gene in the pSF vector; also called sST2; IL1RL1; source: Expi293F, transfected, purified from supernatant (protein A agarose)
T1 sequence (looked up): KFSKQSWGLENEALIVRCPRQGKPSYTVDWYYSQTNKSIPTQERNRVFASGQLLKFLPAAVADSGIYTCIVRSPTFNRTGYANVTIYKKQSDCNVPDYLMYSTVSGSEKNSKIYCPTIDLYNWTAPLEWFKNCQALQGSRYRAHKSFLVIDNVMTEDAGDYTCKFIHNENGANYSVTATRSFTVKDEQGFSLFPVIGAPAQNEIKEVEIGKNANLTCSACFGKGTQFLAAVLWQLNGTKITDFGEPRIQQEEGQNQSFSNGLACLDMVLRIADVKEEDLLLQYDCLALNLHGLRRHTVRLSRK

B1: C2_2E1 (scFv, V domains shown)
VH: EVQLLESGGGLVQPGGSLRLSCAASGFTFSSYYMSWVRQAPGRGLEWVSAISPGSSNKYYADSVKGRFTISRDNSKNTLYLQMNSLRAEDTAVYYCARMTSSFDYWGQGTLVTVSS
VL: QSVLTQPPSASGTPGQRVTISCSGSSSNIGNNDVSWYQQLPGTAPKLLIYSDSQRPSGVPDRFSGSKSGTSASLAISGLRSEDEADYYCGSWDYSLSAYVFGGGTKLTVL
notes: selected from a synthetic human scFv library by phage display; also called anti-IL-33 scFv clone C2_2E1; source: E. coli BL21 (DE3), in cell lysate; purified (Ni-NTA, SEC)
B2: C2_2H5 (scFv, V domains shown)
VH: B1 VH with R43K, R67Q, R98K, M99L, T100S, S101Q
VL: B1 VL with S23T, D33G, V34I, S51D, D52N, Q54H, A85T, G90A, Y94S, A98G
notes: selected from a synthetic human scFv library by phage display; also called anti-IL-33 scFv clone C2_2H5; source: E. coli BL21 (DE3), in cell lysate; purified (Ni-NTA, SEC)
B3: C2_2E12 (scFv, V domains shown)
VH: B1 VH with R43K, M99L, S101L, L111P
VL: B1 VL with N31S, S51A, Q54K, G90A, Y94S
notes: selected from a synthetic human scFv library by phage display; Fab and IgG formats were made but no result is told for them; also called anti-IL-33 scFv clone C2_2E12; C2_2E12 antibody; source: E. coli BL21 (DE3), in cell lysate and purified (Ni-NTA, SEC); scFv also expressed in Expi293F, purified (Ni-NTA, SEC)
B4: C2_2A10 (scFv, V domains shown)
VH: B1 VH with R43K, R87G, R98K, M99L, T100L, S101T, S102G
VL: B1 VL with D33A, S51D, S53N, Q54H, S91T, Y94S
notes: selected from a synthetic human scFv library by phage display; also called anti-IL-33 scFv clone C2_2A10; source: E. coli BL21 (DE3), in cell lysate; purified (Ni-NTA, SEC)
B5: C2_1D5 (scFv, V domains shown)
VH: B1 VH with R43K, M99L, T100L, S102A
VL: B1 VL with N31S, Q54N, S91A, Y94S, A98G
notes: selected from a synthetic human scFv library by phage display; also called anti-IL-33 scFv clone C2_1D5; source: E. coli BL21 (DE3), in cell lysate; purified (Ni-NTA, SEC)
B6: C1_1E1 (scFv, V domains shown)
VH: B1 VH with R43K, R98K, M99L, S102A
VL: B1 VL with S23T, N31S, S35T, S53N, Q54K, D83E, S91A, Y94S, A98G
notes: selected from a synthetic human scFv library by phage display; also called anti-IL-33 scFv clone C1_1E1; source: E. coli BL21 (DE3), in cell lysate; purified (Ni-NTA, SEC)
B7: GST-IL-33 (mature form of interleukin 33, residues 112-270) (domain or fragment, human, UniProt O95760 112-270, looked up)
chain: SITGISPITEYLASLSTYNDQSITFALEDESYEIYVEDLKKDEKKDKVLLSYYESQHPSNESGDGVDGKMLMVTLSPTKDFWLHANNKEHSVELHKCEKPLPDQAFFVLHNMHSNCVSFECKTDPGVFIGVKDNHLALIKVDSSENLCTENILFKLSET
notes: Interleukin-33, human, mature form / IL-1-like cytokine domain, residues 112-270; Synthesised gene in the parallel GST-2 vector; also called GST-IL-33 WT; GST-IL-33_(112)-270; source: E. coli BL21 (DE3), purified (Glutathione Sepharose 4B); not shown: GST, N-terminal, kept

Tests used:
[1] = molecular target: T2, GST-IL-33 (mature form of interleukin 33, residues 112-270) (human, UniProt O95760); assay: ELISA; E. coli cell lysates containing overexpressed His6-tagged scFvs against GST-IL-33; the text says ELISA, the legend 'kinetic analysis'; the methods tell of lysates only for BLI (BLItz; lysate scFv on Ni-NTA biosensors, GST-IL-33 at 2, 1, 0.5 and 0.25 uM, Kd = koff/kon); details: one partner purified
T2 construct: Interleukin-33, human, mature form / IL-1-like cytokine domain, residues 112-270; Synthesised gene in the parallel GST-2 vector; also called GST-IL-33 WT; GST-IL-33_(112)-270; source: E. coli BL21 (DE3), purified (Glutathione Sepharose 4B); not shown: GST, N-terminal, kept

[2] = molecular target: T2, GST-IL-33 (mature form of interleukin …); assay: pull-down; 4 uM GST-IL-33 on Glutathione Sepharose 4B, then 4 uM ST2-Fc, then C2_2E12 (0.4, 4, 40, 400 uM), 30 min at 4 C each step; 50 mM Tris-HCl pH 7.5, 150 mM NaCl; immunoblot (anti-ST2, anti-GST, anti-His6), bands quantified with ImageJ; details: both partners purified
[3] = molecular target: T2, GST-IL-33 (mature form of interleukin …); assay: ELISA; GST-IL-33 coated on the plate; serial dilutions of purified scFv (about 8 ng/mL to 0.8 mg/mL), ambient temperature 1 h, PBST; anti-HA-HRP detection, OD450; repeated three times; details: both partners purified
[4] = molecular target: T1, ST2-Fc fusion protein (ectodomain of …); assay: pull-down; 4 uM GST-IL-33 on Glutathione Sepharose 4B, then 4 uM ST2-Fc, then C2_2E12 (0.4, 4, 40, 400 uM), 30 min at 4 C each step; 50 mM Tris-HCl pH 7.5, 150 mM NaCl; immunoblot (anti-ST2, anti-GST, anti-His6), bands quantified with ImageJ; details: both partners purified

Row | Binder | Kd [1] [nM] | further results
1 | B1 | 35 | –
2 | B2 | 31 | –
3 | B3 | 28 | IL-33:ST2 interaction left at 100-fold molar excess of C2_2E12 (ST2-Fc band relative to that with 0.4 uM C2_2E12) [2]: ~40%; Kd [3]: 38 nM
4 | B4 | 57 | –
5 | B5 | 36 | –
6 | B6 | 48 | –
7 | B7 | – | binding result [4]: binds
